Test results reported in patent US10081665B2, “Peptides and combination of peptides for use in immunotherapy against various tumors” (immatics biotechnologies GmbH, priority 2015, dated 2018).

target: HLA-A*02:01 (Homo sapiens, UniProt P04439, D140Y/D185E/D98H/E176V/E277Q/G131W/G231S/I119V/I121R/I166T/I218V/L300P/L318F/N151K/N90K/P208A/P217A/Q86G/Q94H/R138H/R169H/T345S); assay: MHC binding assay (UV-ligand exchange, beta2m ELISA); conditions: binding to HLA-A*02:01, β2m ELISA
Source text: Candidate peptides for T cell based therapies according to the present invention were further tested for their MHC binding capacity (affinity). The individual peptide-MHC complexes were produced by UV-ligand exchange, where a UV-sensitive peptide is cleaved upon UV-irradiation, and exchanged with the peptide of interest as analyzed. Only peptide candidates that can effectively bind and stabilize the peptide-receptive MHC molecules prevent dissociation of the MHC complexes. To determine the yield of the exchange reaction, an ELISA was performed based on the detection of the light chain (β2m) of stabilized MHC complexes. The assay was performed as generally described in Rodenko et al. (Rodenko et al., 2006).
96 well MAXISorp plates (NUNC) were coated over night with 2 ug/ml streptavidin in PBS at room temperature, washed 4× and blocked for 1 h at 37° C. in 2% BSA containing blocking buffer. Refolded HLA-A*02:01/MLA-001 monomers served as standards, covering the range of 15-500 ng/ml. Peptide-MHC monomers of the UV-exchange reaction were diluted 100 fold in blocking buffer. Samples were incubated for 1 h at 37° C., washed four times, incubated with 2 ug/ml HRP conjugated anti-82m for 1 h at 37° C., washed again and detected with TMB solution that is stopped with […]. Absorption was measured at 450 nm. Candidate peptides that show a high exchange yield (preferably higher than 50%, most preferred higher than 75%) are generally preferred for a generation and production of antibodies or fragments thereof, and/or T cell receptors or fragments thereof, as they show sufficient avidity to the MHC molecules and prevent dissociation of the MHC complexes.

| Substance | Peptide exchange (MHC class I binding score, peptide exchange yield) |
| --- | --- |
| 72 (VLSTRVTNV; listed as Homo sapiens) [compound 72] | ++ (≥20% = ++) |
| 74 (GLAFLPASV; listed as Homo sapiens) [compound 74] | ++ (≥20% = ++) |
| 75 (ALLDGALQL; listed as Homo sapiens) [compound 75] | +++ (≥50 = +++) |
| 76 (FTAEFLEKV; listed as Homo sapiens) [compound 76] | +++ (≥50 = +++) |
| 79 (TVLEEIGNRV; listed as Homo sapiens) [compound 79] | ++ (≥20% = ++) |
| 80 (VLTGQVHEL; listed as Homo sapiens) [compound 80] | +++ (≥50 = +++) |
| 81 (ILAEEPIYI; listed as Homo sapiens) [compound 81] | ++ (≥20% = ++) |
| 83 (GLLENSPHL; listed as Homo sapiens) [compound 83] | ++ (≥20% = ++) |
| 84 (FLLEREQLL; listed as Homo sapiens) [compound 84] | ++++ (≥75% = ++++) |
| 85 (KLLDKPEQFL; listed as Homo sapiens) [compound 85] | ++ (≥20% = ++) |
| 86 (SLFSNIESV; listed as Homo sapiens) [compound 86] | +++ (≥50 = +++) |
| 87 (KLLSLLEEA; listed as Homo sapiens) [compound 87] | +++ (≥50 = +++) |
| 88 (LLLPLELSLA; listed as Homo sapiens) [compound 88] | +++ (≥50 = +++) |
| 90 (AILNVDEKNQV; listed as Homo sapiens) [compound 90] | ++ (≥20% = ++) |
| 91 (LLPSIFLMV; listed as Homo sapiens) [compound 91] | ++ (≥20% = ++) |
| 92 (RLFEEVLGV; listed as Homo sapiens) [compound 92] | ++++ (≥75% = ++++) |
| 93 (RLYGYFHDA; listed as Homo sapiens) [compound 93] | ++ (≥20% = ++) |

| Substance | Peptide exchange (MHC class I binding score, peptide exchange yield) |
| --- | --- |
| 94 (YLDEVAFML; listed as Homo sapiens) [compound 94] | +++ (≥50 = +++) |
| 95 (KLIDEDEPLFL; listed as Homo sapiens) [compound 95] | +++ (≥50 = +++) |
| 96 (ALDTTRHEL; listed as Homo sapiens) [compound 96] | ++ (≥20% = ++) |
| 98 (FVQEKIPEL; listed as Homo sapiens) [compound 98] | +++ (≥50 = +++) |
| 99 (TLFGIQLTEA; listed as Homo sapiens) [compound 99] | +++ (≥50 = +++) |
| 100 (ALQSFEFRV; listed as Homo sapiens) [compound 100] | +++ (≥50 = +++) |
| 103 (YLADTVQKL; listed as Homo sapiens) [compound 103] | ++ (≥20% = ++) |
| 105 (AMLASQTEA; listed as Homo sapiens) [compound 105] | ++ (≥20% = ++) |
| 106 (VLLGSVVIFA; listed as Homo sapiens) [compound 106] | ++ (≥20% = ++) |
| 107 (RVLPGQAVTGV; listed as Homo sapiens) [compound 107] | ++ (≥20% = ++) |
| 108 (FIANLPPELKA; listed as Homo sapiens) [compound 108] | +++ (≥50 = +++) |
| 109 (ILGSFELQL; listed as Homo sapiens) [compound 109] | +++ (≥50 = +++) |
| 110 (QIQGQVSEV; listed as Homo sapiens) [compound 110] | ++ (≥20% = ++) |
| 111 (AQLEGKLVSI; listed as Homo sapiens) [compound 111] | +++ (≥50 = +++) |
| 112 (ILAQDVAQL; listed as Homo sapiens) [compound 112] | +++ (≥50 = +++) |
| 113 (FLFLKEVKV; listed as Homo sapiens) [compound 113] | ++ (≥20% = ++) |

Next, values leading:

| Peptide exchange (MHC class I binding score, peptide exchange yield) | Substance |
| --- | --- |
| ++ (≥20% = ++) | 114 (LLFPSDVQTL; listed as Homo sapiens) [compound 114] |
| ++ (≥20% = ++) | 115 (ILHGEVNKV; listed as Homo sapiens) [compound 115] |
| ++ (≥20% = ++) | 116 (ALLSSVAEA; listed as Homo sapiens) [compound 116] |
| ++ (≥20% = ++) | 117 (TLLEGISRA; listed as Homo sapiens) [compound 117] |
| ++ (≥20% = ++) | 119 (SLIEESEEL; listed as Homo sapiens) [compound 119] |
| +++ (≥50 = +++) | 122 (SIIDTELKV; listed as Homo sapiens) [compound 122] |
| + (≥10% = +) | 123 (QTAPEEAFIKL; listed as Homo sapiens) [compound 123] |
| ++ (≥20% = ++) | 124 (ALLLRLFTI; listed as Homo sapiens) [compound 124] |
| +++ (≥50 = +++) | 125 (AALEVLAEV; listed as Homo sapiens) [compound 125] |
| +++ (≥50 = +++) | 126 (QLREAFEQL; listed as Homo sapiens) [compound 126] |
| ++ (≥20% = ++) | 128 (SILTNISEV; listed as Homo sapiens) [compound 128] |
| ++ (≥20% = ++) | 129 (KMASKVTQV; listed as Homo sapiens) [compound 129] |
| +++ (≥50 = +++) | 130 (QLYGSAITL; listed as Homo sapiens) [compound 130] |
| +++ (≥50 = +++) | 131 (SLYPHFTLL; listed as Homo sapiens) [compound 131] |
| +++ (≥50 = +++) | 132 (ALLNNVIEV; listed as Homo sapiens) [compound 132] |
| ++ (≥20% = ++) | 133 (FLDGRPLTL; listed as Homo sapiens) [compound 133] |
| ++ (≥20% = ++) | 134 (SLYKSFLQL; listed as Homo sapiens) [compound 134] |
| +++ (≥50 = +++) | 136 (LLWDAPAKC; listed as Homo sapiens) [compound 136] |
| ++ (≥20% = ++) | 137 (KLIYKDLVSV; listed as Homo sapiens) [compound 137] |
| ++ (≥20% = ++) | 138 (GIINKLVTV; listed as Homo sapiens) [compound 138] |
| +++ (≥50 = +++) | 139 (IILENIQSL; listed as Homo sapiens) [compound 139] |
| +++ (≥50 = +++) | 140 (FLDSQITTV; listed as Homo sapiens) [compound 140] |
| ++ (≥20% = ++) | 141 (NIDINNNEL; listed as Homo sapiens) [compound 141] |
| ++ (≥20% = ++) | 142 (LLDAAHASI; listed as Homo sapiens) [compound 142] |
| +++ (≥50 = +++) | 143 (MLWESIMRV; listed as Homo sapiens) [compound 143] |
| +++ (≥50 = +++) | 144 (FLISQTPLL; listed as Homo sapiens) [compound 144] |
| +++ (≥50 = +++) | 145 (ALEEKLENV; listed as Homo sapiens) [compound 145] |
| ++ (≥20% = ++) | 146 (VVAAHLAGA; listed as Homo sapiens) [compound 146] |
| +++ (≥50 = +++) | 147 (GLLSALENV; listed as Homo sapiens) [compound 147] |
